Here are results for eight molecules from US20250326836A1 (SHIONOGI, published 2025).

In test [1] the target is T1, human cannabinoid type 1 (CB1) receptor (human, UniProt P21554 1-472). Kind of test: cell-based or functional assay.
Test [2] has as its target T1, human cannabinoid type 1 (CB1) receptor. Kind of test: cell-based or functional assay. This is another data set of the same source.

Where a chain is given by its changes, count along the chain named. Where two headings read alike, the source gives them in different places.

T1 sequence (P21554 whole entry): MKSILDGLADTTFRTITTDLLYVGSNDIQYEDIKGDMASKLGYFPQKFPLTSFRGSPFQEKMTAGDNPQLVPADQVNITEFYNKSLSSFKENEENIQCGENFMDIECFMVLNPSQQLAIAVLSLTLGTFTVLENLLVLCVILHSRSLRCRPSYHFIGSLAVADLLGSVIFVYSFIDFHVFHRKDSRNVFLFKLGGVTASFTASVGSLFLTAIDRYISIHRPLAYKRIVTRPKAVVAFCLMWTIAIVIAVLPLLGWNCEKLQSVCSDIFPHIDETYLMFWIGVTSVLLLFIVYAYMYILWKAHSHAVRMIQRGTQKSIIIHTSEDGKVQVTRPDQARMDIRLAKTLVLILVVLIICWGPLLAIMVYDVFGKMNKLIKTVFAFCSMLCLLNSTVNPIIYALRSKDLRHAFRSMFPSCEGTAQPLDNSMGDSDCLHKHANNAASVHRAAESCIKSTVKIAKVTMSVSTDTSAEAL

B1: hIML1-2-OP1 (antibody, V domains shown)
VH: QVQLVQSGAEVKKPGASVKVSCKASGYEFNYYWMNWVRQAPGQGLEWMGQIYPGDGDNRYNGKFKGRVTMTRDTSTSTVYMELSSLRSEDTAVYYCARTGSGRFAYWGQGTLVTVSS
VL: DIQMTQSPSSLSASVGDRVTITCKASSSVSTRYLHWYQQKPGKAPKLLIYGTSNIASGVPSRFSGSGSGTDFTLTISSLQPEDVATYYCQQYTAFPLTFGQGTKVEIKR
With B1, in test [1], the “Ca^2+ influx assay IC50” value stood at 0.55 nM and the “cAMP assay IC50” value was determined as 8.5 nM.

B2: m2F8 (antibody, V domains shown)
VH: QVQLQQSGAELVKPGASVKISCKASGYEFSYYWMNWVKQRPGKGLEWIGQIYPGDGDTNYNGKFKGKATLAAGKSSSTAYMQLSSLTSEDSAVYFCARSHGNYMIYWGQGTSVTVSS
VL: QIVLTQSPAIMSASLGERITLTCIASSSVSSSYLHWYQQKPGSSPKLWIYSTSNLASGVPTRFSGSGSGTSFSLTISTMEAEDAATYYCHQYHRSPRTFGGGTKLEIKR
Take B2: in test [2], the “Ca^2+ influx assay IC50” value was 0.9 nM and the “cAMP assay IC50” value came out at 4.9 nM.

B3: m4D7 (antibody, V domains shown)
VH: B2 VH with L70V, A71T, G73D, R98K, I105D
VL: B2 VL with I24T
Consider B3, for which, in test [2], the “Ca^2+ influx assay IC50” value came to 1.29 nM and the “cAMP assay IC50” value is 3.9 nM.

B4: m24C4 (antibody, V domains shown)
VH: B2 VH with A71T, G73D, I105H
VL: B2 VL with I24T
As to B4, in test [2], the “Ca^2+ influx assay IC50” value is 1.22 nM and the “cAMP assay IC50” value was 5 nM.

B5: m26C7 (antibody, V domains shown)
VH: B2 VH with A71T, G73D, I105A
VL: B2 VL with I24T
As for B5, in test [2], the “Ca^2+ influx assay IC50” value is 1.85 nM and the “cAMP assay IC50” value worked out at 6.5 nM.

B6: Nimacimab (BIRD ROCK BIO) (antibody, V domains shown)
VH: QVQLVQSGAEVKKPGSSVKVSCKASGYEFSYYWMNWVRQAPGQGLEWMGQIYPGDGETKYAQKFQGRVTITADKSTSTAYMELSSLRSEDTAVYYCARSHGNYLPYWGQGTLVTVSS
VL: EIVLTQSPATLSLSPGERATLSCRASQSVSSSYLHWYQQKPGQAPRLLIYSTSNLASGIPARFSGSGSGTDFTLTISRLEPEDFAVYYCHQYHRSPPTFGQGTKVEIK
With B6, in test [1], the “Ca^2+ influx assay IC50” value was determined as 2.62 nM and the “cAMP assay IC50” value is 28.6 nM.

B7: h2F8 (antibody, V domains shown)
VH: QVQLVQSGAEVKKPGASVKVSCKASGYEFSYYWMNWVRQAPGQGLEWMGQIYPGDGDTNYNGKFKGRVTMTRDTSTSTVYMELSSLRSEDTAVYYCARSHGNYMIYWGQGTTVTVSS
VL: EIVLTQSPGTLSLSPGERATLSCIASSSVSSSYLHWYQQKPGQAPRLLIHSTSNLASGIPERFSGSGSGPDFTLTISRLKPEDFAVYYCHQYHRSPRTFGQGTKVEIKR
With B7, in test [1], the “Ca^2+ influx assay IC50” value worked out at 2.03 nM and the “cAMP assay IC50” value is 5.9 nM.

B8: mIML1-2 (antibody, V domains shown)
VH: QVQLQQSGAELVKPGASVKIACKASGYEFNYYWMNWVKQRPGKGLEWIGQIYPGDGDNKYNGKFKGKATLTADKSSSTVYMQLNSLTSEDSAVYFCARTGSGRFAYWGQGTLVTVSA
VL: QIVLTQSPAIMSASPGEKVTMTCRASSSVSSSYLHWYQQKSGASPKLWIYSTSNLASGVPARFSGSGSGTSYSLTITSVEAEDVATYYCQQYSGFPLTFGSGTKLEIKR
As to B8, in test [2], the “Ca^2+ influx assay IC50” value stood at 1.77 nM and the “cAMP assay IC50” value came to 5.9 nM.
